Test results: patent US7229960B2, “Methods and compositions for inhibiting GRB7” (University of Vermont and State Agricultural College, priority 2000, dated 2007)
Entries after “also recorded” stand apart in the source; their conditions may differ. Non-standard residues stand in square brackets, D forms with d. No end group written: not given here. pY = N[C@@H](Cc1ccc(OP(=O)(O)O)cc1)C(=O)O

What was measured:
[1] = biological target: Grb7-SH2-GST (Homo sapiens, UniProt Q14451); assay: Competition ELISA, free synthetic peptide versus Grb7 binding peptide-phage on Grb7-SH2-GST; conditions: for Inhibition of G7-8NA peptide-phage binding to Grb7-SH2 / Inhibition of G7-18 peptide-phage binding to Grb7-SH2: free synthetic peptide at 1, 10, 100 uM
Chain of Grb7-SH2-GST (Q14451 431-527 limits assumed): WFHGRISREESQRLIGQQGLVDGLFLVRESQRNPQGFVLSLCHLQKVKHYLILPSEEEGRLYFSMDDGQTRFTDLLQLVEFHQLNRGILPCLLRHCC
Description: The G7-18 (FIG. 5A) and G7-8NA (FIG. 5B) peptide-phage were concentrated with standard polyethylene glycol precipitation methods and added to each well (1×10^6 phage/well) in the presence of synthetic peptides or without (control). G7-18 peptide-phage competitors were G7-18, G7-18NATE and G7-8 free synthetic peptides (FIG. 5A). G7-8NA peptide-phage competitors were G7-8, G7-8NA and G7-8NATE free synthetic peptides (FIG. 5B). The synthetic peptides were mixed at different concentrations (1, 10, 100 uM) with peptide-phage before adding to Grb7-SH2-GST. Unbound phage were washed away with Tween-TBS buffer and bound phage were detected with anti-M13-horseradish peroxidase (Amersham-Pharmacia Biotech) and ABTS substrate (Calbiochem). Phage was detected by anti-M13-HRP antibody conjugate and detected using ABTS substrate. Plates were read at OD405.

[2] = biological target: T1, SH2 domain of human Grb7 (Homo sapiens, UniProt Q14451); assay: Phage ELISA, peptide-phage binding to Grb7-SH2 domain-GST; conditions: for Relative binding affinity for Grb7: ELISA binding assay, comparison among G7BPs; for Effect of mutation of G7BP-4 phage clone on binding to Grb7-SH2-GST: phage ELISA, compared with G7BP-4
T1 construct: The SH2 domain of human Grb7 containing a GST fusion tag; made in house; host or cells: E. coli
T1 sequence (Q14451 431-527 limits assumed): as above
Description: The G7BPs were identified using peptide phage display techniques. Two phage display libraries were created and screened that led to the identification of these peptides. The first library was a random peptide phage-display library containing more than 10^7 different cyclic decapeptides flanked at each end by regions of four amino acids, according to the following general motif: X4 C X10 C X4 (X=any amino acid residue, C=cysteine). […] The SH2 domain of human Grb7 containing a GST fusion tag was purified from an E. coli expression system. The random 10mer library was screened using standard phage display methodology (Smith GP. 1985. Science. 228:1315-7). The phage library was added to the target protein which was immobilized on glutathione Sepharose beads (Pharmacia). The unbound phage were removed with a series of washes and the bound phage were eluted by competitive elution with excess glutathione. These bound phage were allowed to infect E. coli in order to amplify the eluted phage. This screening process was repeated two times for a total of three rounds of screening. After the third round of screening, clones from the amplified phage were isolated and sequenced. Thirty-nine clones were characterized and all contained a Y-A/D/E-N motif, where the +2 position was enriched for alanine, aspartic acid, and glutamic acid. The second library, biased for this Y-A/D/E-N motif, was created in the same FuseV phage display system. This biased library contained over 10^6 different clones.
An ELISA binding assay was used to determine whether the peptide-phage bind specifically to the SH2 domain of Grb7, and not to the fusion protein (GST) or other SH2 domains that are homologous to Grb7. The overall methodology of an ELISA is well established. Four different proteins were bound to a polystyrene 96-well plate: Grb7-SH2 domain-GST, GST alone, Grb2-GST and BSA as a non-specific negative control. Preparations of the concentrated Grb7 peptide-phage clones were allowed to bind to these proteins. Non-specific binding was blocked by casein. Binding of phage was detected using an anti-phage antibody conjugated to horseradish peroxidase.
Mutational analysis of G7BP-4 has been conducted to determine which amino acid residues are important in peptide binding to Grb7-SH2 as well as to determine the size restriction of these peptides. The mutations for G7BP-4 include the following: (1) eliminating the 4 amino acids flanking the cysteines ([…], SEQ ID NO:35) referred to as G7BP4-No Arms (NA), (2) mutating the cysteines to serine residues ([…], SEQ ID NO:36), which are structurally very similar, referred to as G7BP4-Ser, (3) mutating the cysteines to valine residues ([…], SEQ ID NO:37), which is similar in structure and charge, and (4) a combination where the cysteines were mutated to serines and the 4 flanking amino acids were removed ([…], SEQ ID NO:38), referred to as G7BP-No Arms(NA)-Ser. The substitutions of valine and serine for cysteine will eliminate the peptides ability to form a disulfide loop. The mutations were created as a DNA oligo, ligated into the fuse5 vector, and expressed as a peptide-phage. The resultant phage were tested in a phage ELISA for their ability to bind to Grb7-SH2-GST. […] Variants of the G7BP-1, G7BP-2, G7BP-3, G7BP-5, G7BP-6 and G7BP-7 which similarly lack the 4 tracking amino acids on both ends can also bind specifically to Grb7. These peptides have the following amino acid sequences respectively: […]

[3] = biological target: association of Grb7 with the ErbB family of receptors (Homo sapiens, UniProt Q14451); assay: Co-immunoprecipitation of Grb7 with tyrosine phosphorylated ErbB family in heregulin-stimulated SKBR3 cell lysate; conditions: for Inhibition of association of Grb7 with the ErbB family: heregulin β1 stimulated SKBR3 lysate, anti-Grb7 IP, anti-phosphotyrosine at 185 kDa, densitometry
Chain of association of Grb7 with the ErbB family of receptors (Q14451 whole entry): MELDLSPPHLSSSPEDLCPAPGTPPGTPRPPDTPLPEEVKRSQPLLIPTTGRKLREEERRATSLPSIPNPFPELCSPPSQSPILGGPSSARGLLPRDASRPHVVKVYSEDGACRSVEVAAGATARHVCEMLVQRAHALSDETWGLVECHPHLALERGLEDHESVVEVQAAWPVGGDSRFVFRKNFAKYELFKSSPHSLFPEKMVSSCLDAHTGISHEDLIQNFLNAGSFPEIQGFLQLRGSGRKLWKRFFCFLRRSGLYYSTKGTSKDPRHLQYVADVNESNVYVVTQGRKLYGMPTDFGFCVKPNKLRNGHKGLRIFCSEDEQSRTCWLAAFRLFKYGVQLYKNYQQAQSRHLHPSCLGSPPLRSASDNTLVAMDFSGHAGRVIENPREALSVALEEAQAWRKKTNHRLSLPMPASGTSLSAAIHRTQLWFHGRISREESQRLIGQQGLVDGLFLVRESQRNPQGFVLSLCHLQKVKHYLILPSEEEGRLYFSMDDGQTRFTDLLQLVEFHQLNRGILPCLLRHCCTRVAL
Description: Two of the Grb7-binding peptides were tested for their ability to inhibit Grb7 from binding its known target molecules, such as ErbB2 and ErbB3, in whole cell extracts. Whole cell extracts were made from the cell line SKBR3, which overexpresses Grb7, ErbB2 and ErbB3. […] The immunoprecipitations were carried out with anti-Grb7 followed by western blot. The western blot was divided so the top half was incubated with anti-phosphotyrosine to detect the associated ErbB family that migrates at 185 kDa. The bottom half of western blot was incubated with anti-Grb7 as a loading control.

C VFWG YAN DWL C (CVFGYANDWLC; Variant of G7BP-4) [G7BP-4NA]
Inhibition of G7-8NA peptide-phage binding to Grb7-SH2 [1]: inhibition | Relative binding affinity for Grb7 [2]: lesser affinity | Effect of mutation of G7BP-4 phage clone on binding to Grb7-SH2-GST [2]: did not effect its ability to bind

DpYVPML (D[pY]VPML) [N1480, reference compound]
Inhibition of Grb7 binding peptide-phage binding to Grb7-SH2 ([1]; phage clone not specified, data not shown): No inhibition

GVSN C VFWG YAN DWL C SDYS (GVSNCVFWGYANDWLCSDYS; Peptide sequence from FuseV Phage Display) [G7BP-4]
Inhibition of G7-8NA peptide-phage binding to Grb7-SH2 [1]: inhibition | Inhibition of G7-18 peptide-phage binding to Grb7-SH2 ([1]; listed as G7-8): inhibits; also recorded: inhibition | Relative binding affinity for Grb7 [2]: higher affinity

GVSNSVFGYANDWLSSDYS (Variant of G7BP-4) [G7BP4-Ser]
Effect of mutation of G7BP-4 phage clone on binding to Grb7-SH2-GST [2]: reducing the binding capacity

GVSNVVFGYANDWLVSDYS (Variant of G7BP-4) [SEQ ID NO:37, G7BP-4 with cysteines mutated to valine]
Effect of mutation of G7BP-4 phage clone on binding to Grb7-SH2-GST [2]: reducing the binding capacity

PQPEYVNQPD (Non-phosphorylated peptide which mimics ErbB2 site) [Y 139]
Inhibition of association of Grb7 with the ErbB family [3]: showed no competition

RSTL C WFEG YDN TFP C KYFR (RSTLCWFEGYDNTFPCKYFR; Peptide sequence from FuseV Phage Display) [G7BP-5]
Inhibition of G7-18 peptide-phage binding to Grb7-SH2 [1]: inhibition | Level of inhibition of Grb7 co-immunoprecipitation with the ErbB family ([3]; 100 uM, data not shown): same levels of inhibition

SVFGYANDWLS (Variant of G7BP-4) [G7BP-No Arms(NA)-Ser]
Effect of mutation of G7BP-4 phage clone on binding to Grb7-SH2-GST [2]: reducing the binding capacity

Y1139 peptide: the Y1139 ErbB2-site peptide when it is phosphorylated (PQPEYVNQPD; not fully specified (residue 5))
Inhibition of association of Grb7 with the ErbB family [3]: does compete

^VFWG YAN DWL C^ (VFWGYANDWLC; cyclised thioether; Variant G7BP-4NATE)
Inhibition of G7-8NA peptide-phage binding to Grb7-SH2 ([1]; listed as G7-8NATE): inhibition; also recorded: to a lesser extent than seen with the disulfide containing peptides
